For one substance, Tm results are on record in FireProtDB (doi:10.1021/bi060525p).

For this series the following is noted: Homo sapiens, pH 7.4, Thermal, Phosphate 10 mM.

Chain of Hemoglobin subunit alpha wild type, P69905 (P69905 whole entry): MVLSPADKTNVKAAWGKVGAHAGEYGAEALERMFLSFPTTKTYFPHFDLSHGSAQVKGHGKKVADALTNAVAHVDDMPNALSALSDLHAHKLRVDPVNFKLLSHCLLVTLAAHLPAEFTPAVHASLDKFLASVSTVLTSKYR

The term Tm denotes the temperature at the midpoint of the melting transition. Take “Hemoglobin subunit alpha wild type, P69905”: the melting temperature (Tm) (Absorbance) amounted to 71 °C, the Tm (CD) worked out at 73 °C, the Tm (DSC) was found to be 75 °C and the Tm (Optical Density) came to 58.7 °C.
